Results as given in patent US20040139485A1 (US Dept. of Health and Human Services, published 2004).

B1: pRb (retinoblastoma gene product), endogenous in rat liver epithelial cell extracts (other)
chain: PPKAPRRTAAAEPPPPPPPPPEDDPAQDSDPEELPLIRLEFEKIEEPEFIALCQKLKVPDHVRERAWLTWEKVSSVDGILEGYIQKKKELWGICIFIAAVDLDEMPFTFTELQKSIETSVYKFFDLLKEIDTSTKVDNAVSRLLKKYNVLCALYSKLERTCGLIYLTQPSSGLSTEINSMLVLKVSWITFLLAKGEVVQMEDDLVISFQLMLCVLDYFIKLSPPALLREPYKTAATPINGSPRTPRRGQNRSARIAKQLESDTRTIEVLCKEHECNVDEVKNVYFKNFIPFISSLGIVSSNGLPELESLSKRYEEVYLKSKDLDARLFLDHDKTLQTDTIDSFETERTPRKSNPDEEANMVTPHTPVRTVMNTIQQLMVILNSASDQPSENLISYFSNCTVNPKENILKRVKDVGHIFKEKFASAVGQGCIDIGAQRYKLGVRLYYRVMESMLKSEEERLSIQNFSKLLNDNIFHMSLLACALEVVMATYSRSMLQNLDSGTDLSFPWILNVLNLKAFDFYKVIESFIKVEANLTREMIKHLERCEHRIMESLAWLSDSPLFDLIKQSKDGEGPDHLESACSLSLPLQSNHTAADMYLSPIRSPKKRTSTTRVNSAANTETQAASAFHTQKPLKSTSLSLFYKKVYRLAYLRLNTLCARLLSDHPELEHIIWTLFQHTLENEYELMKDRHLDQIMMCSMYGICKVKNIDLKFKIIVTAYKDLPHAAQETFKRVLIREEEFDSIIVFYNSVFMQRLKTNILQYASTRPPTLSPIPHIPRSPYKFSSSPLRIPGGNIYISPLKSPYKISEGLPTPTKMTPRSRILVSIGESFGTSEKFQKINQMVCNSDRVLKRSAEGGNPPKPLKKLRFDIEGSDEADGSKHLPAESKFQQKLAEMTSTRTRMQKQKLNDSMEISNKEEK
B2: BOG-MBP chimeric protein (complete rBOG fused to the carboxy-terminal of maltose binding protein, pMAL-P2-BOG) (other, not shown: large carriers)
chain: MVSPTKAVIVPGNGGGDVATHGWYGWVRKGLEQIPGFQCLAKNMPDPITARESIWLPFMETELHCDEKTIIIGHSSGAIAAMRYAETHQVYALILVSAYTSDLGDENERASGYFSRPWQWEKIKANCPHIIQFGSTDDPFLPWKEQQEVADSWTPNCTNSLTVVTFRTQSSMN
notes: Any vector-encoded linker between MBP and BOG is not described; also called fusion protein BOG-MBP; chimeric BOG-MBP

Tests used:
[1] = target: maltose binding protein without BOG (UniProt P0AEX9 27-392 = MBP); test: precipitation from whole cell lysates with amylose-purified protein
[2] = target: B1; test: precipitation of pRb from whole cell lysates by amylose-purified BOG-MBP

binding result [1] | binding result [2] | Binder
no binding |  | B1
 | binds | B2
